Test results taken from PMC6279836, “The LPG1x family from Leishmania major is constituted of rare eukaryotic galactofuranosyltransferases with unprecedented catalytic properties” (Scientific Reports, 2018).

Columns and labels:
Experiment in all cases: purified protein
Settings in all cases: donor substrate; acceptor methyl alpha-D-mannopyranoside
[1] = tested on: O=c1ccn([C@@H]2O[C@H](COP(=O)(O)OP(=O)(O)O[C@H]3O[C@H](CO)[C@H](O)[C@H](O)[C@H]3O)[C@@H](O)[C@H]2O)c(=O)[nH]1
[2] = tested on: O=c1ccn([C@@H]2O[C@H](COP(=O)(O)OP(=O)(O)O[C@H]3O[C@@H]([C@H](O)CO)[C@H](O)[C@H]3O)[C@@H](O)[C@H]2O)c(=O)[nH]1
[3] = tested on: O=c1ccn([C@@H]2O[C@H](CO[P@@](=O)(O)O[P@@](=O)(O)O[C@H]3O[C@H](CO)[C@@H](O)[C@H](O)[C@H]3O)[C@@H](O)[C@H]2O)c(=O)[nH]1
[4] = tested on: Nc1nc2c(ncn2[C@@H]2O[C@H](COP(=O)(O)OP(=O)(O)O[C@H]3O[C@H](CO)[C@@H](O)[C@H](O)[C@@H]3O)[C@@H](O)[C@H]2O)c(=O)[nH]1
[5] = tested on: Nc1nc2c(ncn2[C@@H]2O[C@H](COP(=O)(O)OP(=O)(O)O[C@H]3O[C@H](CO)[C@@H](O)[C@H](O)[C@H]3O)[C@@H](O)[C@H]2O)c(=O)[nH]1

LPG1 (Leishmania major) gave a Km [1] of 230 ± 20 µM, a kcat [1] of 5.33 ± 0.367 s⁻¹ and a kcat/Km [1] of 23300 M⁻¹ s⁻¹. It also gave a Km [2] of 70 ± 70 µM, a kcat [2] of 512.5 ± 1.03 s⁻¹ and a kcat/Km [2] of 6.83e+06 M⁻¹ s⁻¹.
LPG1R (Leishmania major) was tested, and the Km [3] was 38 ± 5 µM, the kcat [3] was 5.05 ± 0.55 s⁻¹ and the kcat/Km [3] was 133000 M⁻¹ s⁻¹. The Km [2] was 550 ± 680 µM, the kcat [2] was 10.6 ± 1.27 s⁻¹ and the kcat/Km [2] was 19100 M⁻¹ s⁻¹.
For LPG1L (Leishmania major), the Km [1] was 50 ± 10 µM, the kcat [1] was 7.8 ± 0.833 s⁻¹ and the kcat/Km [1] was 165000 M⁻¹ s⁻¹. For the same substance, the Km [4] was 32 ± 5 µM, the kcat [4] was 1.43 ± 0.1 s⁻¹ and the kcat/Km [4] was 47700 M⁻¹ s⁻¹. The Km [5] was 43 ± 5 µM, the kcat [5] was 0.4 ± 0.05 s⁻¹ and the kcat/Km [5] was 8330 M⁻¹ s⁻¹. It also gave a Km [3] of 6 ± 1 µM, a kcat [3] of 3.42 ± 0.433 s⁻¹ and a kcat/Km [3] of 578000 M⁻¹ s⁻¹. The Km [2] was 20 ± 20 µM, the kcat [2] was 88.3 ± 1.05 s⁻¹ and the kcat/Km [2] was 4.85e+06 M⁻¹ s⁻¹.
With LPG1G (Leishmania major) the Km [1] was 5 ± 1 µM, the kcat [1] was 2.2 ± 0.167 s⁻¹ and the kcat/Km [1] was 466000 M⁻¹ s⁻¹. For the same substance, the Km [2] was 30 ± 40 µM, the kcat [2] was 205.9 ± 0.967 s⁻¹ and the kcat/Km [2] was 6.56e+06 M⁻¹ s⁻¹.
